Source: paper PMC10397247
Where two headings read alike, the source gives them in different places.

Columns and labels:
4H967-bN = target: T1, 4H967-bN; test: two-hybrid library CCNG1;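 note: natural log of median RNA to DNA barcode read ratio; higher means stronger binding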
T1 chain: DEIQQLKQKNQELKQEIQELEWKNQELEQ

4H993-AA = target: T2, 4H993-AA; test: two-hybrid library CCmax;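 note: natural log of median RNA to DNA barcode read ratio; higher means stronger binding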
T2 chain: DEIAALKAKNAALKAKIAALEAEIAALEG

4H794-AA = target: T3, 4H794-AA; test: two-hybrid library CCmax; conditions: mean of both orientations;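 note: natural log of median RNA to DNA barcode read ratio; higher means stronger binding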
T3 chain: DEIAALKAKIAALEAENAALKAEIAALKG

4H605-AA = target: T4, 4H605-AA; test: two-hybrid library CCmax;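 note: natural log of median RNA to DNA barcode read ratio; higher means stronger binding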
T4 chain: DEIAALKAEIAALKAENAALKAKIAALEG

4H48-AA = target: T5, 4H48-AA; test: two-hybrid library CCmax; conditions: mean of both orientations;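 note: natural log of median RNA to DNA barcode read ratio; higher means stronger binding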
T5 chain: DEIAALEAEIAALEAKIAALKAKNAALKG

4H780-AA = target: T6, 4H780-AA; test: two-hybrid library CCmax; conditions: mean of both orientations;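 note: natural log of median RNA to DNA barcode read ratio; higher means stronger binding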
T6 chain: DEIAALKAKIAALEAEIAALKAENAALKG

4H566-AA = target: T7, 4H566-AA; test: two-hybrid library CCmax
T7 chain: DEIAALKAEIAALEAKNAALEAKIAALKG

4H678-AA = target: T8, 4H678-AA; test: two-hybrid library CCmax
T8 chain: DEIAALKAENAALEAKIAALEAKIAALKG

4H429-AA = target: T9, 4H429-AA; test: two-hybrid library CCmax
T9 chain: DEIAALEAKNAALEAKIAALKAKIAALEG

4H717-AA = target: T10, 4H717-AA; test: two-hybrid library CCmax; conditions: mean of both orientations
T10 chain: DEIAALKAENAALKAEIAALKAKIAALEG

4H454-AA = target: T11, 4H454-AA; test: two-hybrid library CCmax; conditions: mean of both orientations
T11 chain: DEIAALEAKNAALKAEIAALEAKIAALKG

4H881-AA = target: T12, 4H881-AA; test: two-hybrid library CCmax; conditions: mean of both orientations
T12 chain: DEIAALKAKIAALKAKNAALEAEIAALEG

4H906-AA = target: T13, 4H906-AA; test: two-hybrid library CCmax; conditions: mean of both orientations
T13 chain: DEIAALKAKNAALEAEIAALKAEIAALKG

4H710-AA = target: T14, 4H710-AA; test: two-hybrid library CCmax; conditions: mean of both orientations
T14 chain: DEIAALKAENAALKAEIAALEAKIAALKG

4H745-AA = target: T15, 4H745-AA; test: two-hybrid library CCmax
T15 chain: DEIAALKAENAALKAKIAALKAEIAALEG

4H850-AA = target: T16, 4H850-AA; test: two-hybrid library CCmax
T16 chain: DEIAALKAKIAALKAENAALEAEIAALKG

4H891-AA = target: T17, 4H891-AA; test: two-hybrid library CCmax; conditions: mean of both orientations
T17 chain: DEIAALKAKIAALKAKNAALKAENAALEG

4H570-AA = target: T18, 4H570-AA; test: two-hybrid library CCmax
T18 chain: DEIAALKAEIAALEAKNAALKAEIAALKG

4H930-AA = target: T19, 4H930-AA; test: two-hybrid library CCmax; conditions: mean of both orientations
T19 chain: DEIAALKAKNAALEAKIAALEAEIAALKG

4H909-AA = target: T20, 4H909-AA; test: two-hybrid library CCmax
T20 chain: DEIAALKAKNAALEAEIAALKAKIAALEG

4H94-AA = target: T21, 4H94-AA; test: two-hybrid library CCmax; conditions: mean of both orientations
T21 chain: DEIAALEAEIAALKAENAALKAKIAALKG

4H797-AA = target: T22, 4H797-AA; test: two-hybrid library CCmax; conditions: mean of both orientations
T22 chain: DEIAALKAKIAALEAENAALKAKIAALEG

4H485-AA = target: T23, 4H485-AA; test: two-hybrid library CCmax
T23 chain: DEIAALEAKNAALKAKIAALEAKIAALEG

4H629-AA = target: T24, 4H629-AA; test: two-hybrid library CCmax
T24 chain: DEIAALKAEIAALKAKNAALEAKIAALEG

4H536-AA = target: T25, 4H536-AA; test: two-hybrid library CCmax; conditions: mean of both orientations
T25 chain: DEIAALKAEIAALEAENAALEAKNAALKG

4H458-AA = target: T26, 4H458-AA; test: two-hybrid library CCmax
T26 chain: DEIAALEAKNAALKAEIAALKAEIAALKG

4H63-AA = target: T27, 4H63-AA; test: two-hybrid library CCmax
T27 chain: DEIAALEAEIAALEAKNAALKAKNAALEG

4H971-AA = target: T28, 4H971-AA; test: two-hybrid library CCmax
T28 chain: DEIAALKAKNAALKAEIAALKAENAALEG

## DEIQQLKQKNQELKQEIQELEWKNQELEQ [4H967-bN]
4H967-bN
  interaction score: -0.749

## DEIAALEAKNAALEAKIAALKAKIAALEG [4H429-AA]
4H993-AA
  interaction score: 1.92
4H794-AA
  interaction score: -0.809
4H605-AA
  interaction score: -1.54
4H48-AA
  interaction score: -0.728
4H780-AA
  interaction score: -1.7
4H566-AA; mean of both orientations
  interaction score: 0.0626
4H678-AA; mean of both orientations
  interaction score: 1.26
4H429-AA
  interaction score: 0.468
4H717-AA
  interaction score: -0.775
4H454-AA
  interaction score: 1.83
4H881-AA
  interaction score: -0.143
4H906-AA
  interaction score: -0.239

## DEIAALEAKNAALKAKIAALEAKIAALEG [4H485-AA]
4H710-AA
  interaction score: 1.71
4H745-AA
  interaction score: 1.2
4H850-AA; mean of both orientations
  interaction score: 1.97
4H891-AA
  interaction score: -2.05
4H570-AA; mean of both orientations
  interaction score: -1.69
4H930-AA
  interaction score: -0.103
4H909-AA; mean of both orientations
  interaction score: -0.153
4H94-AA
  interaction score: -1.46
4H797-AA
  interaction score: -0.968
4H485-AA
  interaction score: 1.06
4H629-AA; mean of both orientations
  interaction score: -1.15
4H536-AA
  interaction score: -1.29

## DEIAALKAKIAALKAENAALEAEIAALKG [4H850-AA]
4H850-AA
  interaction score: 1.89
4H891-AA
  interaction score: -0.0612
4H930-AA
  interaction score: -1.9
4H909-AA; mean of both orientations
  interaction score: -1.47
4H94-AA
  interaction score: 1.79

## DEIAALKAEIAALEAKNAALKAEIAALKG [4H570-AA]
4H710-AA
  interaction score: -1.47
4H745-AA; mean of both orientations
  interaction score: -1.48
4H850-AA; mean of both orientations
  interaction score: 1.66
4H891-AA
  interaction score: -0.736
4H570-AA
  interaction score: 1.51
4H930-AA
  interaction score: -1.1
4H909-AA; mean of both orientations
  interaction score: -1.22
4H94-AA
  interaction score: 1.71
4H797-AA
  interaction score: 0.178
4H629-AA; mean of both orientations
  interaction score: -0.598

## DEIAALEAKNAALKAEIAALKAEIAALKG [4H458-AA]
4H710-AA
  interaction score: 1.06
4H745-AA; mean of both orientations
  interaction score: 1.1
4H850-AA; mean of both orientations
  interaction score: 1.08
4H891-AA
  interaction score: -1.67
4H570-AA; mean of both orientations
  interaction score: -0.947
4H930-AA
  interaction score: -0.663
4H909-AA; mean of both orientations
  interaction score: -0.173
4H94-AA
  interaction score: -1.35
4H797-AA
  interaction score: -1.44
4H485-AA; mean of both orientations
  interaction score: -1.76
4H458-AA
  interaction score: 1.87
4H629-AA
  interaction score: -1.64
4H536-AA
  interaction score: -1.46

## DEIAALKAEIAALKAKNAALEAKIAALEG [4H629-AA]
4H710-AA
  interaction score: -0.399
4H745-AA; mean of both orientations
  interaction score: -1.44
4H850-AA; mean of both orientations
  interaction score: -0.0456
4H891-AA
  interaction score: -1.48
4H930-AA
  interaction score: -1.41
4H909-AA; mean of both orientations
  interaction score: -1.56
4H94-AA
  interaction score: -0.298
4H797-AA
  interaction score: -1.05
4H629-AA
  interaction score: 1.86

## DEIAALKAENAALEAKIAALEAKIAALKG [4H678-AA]
4H993-AA; mean of both orientations
  interaction score: 1.05
4H794-AA
  interaction score: -1.91
4H780-AA
  interaction score: -1.59
4H678-AA
  interaction score: 1.57
4H717-AA
  interaction score: -0.0211
4H881-AA
  interaction score: 1.21
4H906-AA
  interaction score: -0.716

## DEIAALKAEIAALEAKNAALEAKIAALKG [4H566-AA]
4H993-AA; mean of both orientations
  interaction score: 1.6
4H794-AA
  interaction score: -0.409
4H605-AA; mean of both orientations
  interaction score: -0.184
4H780-AA
  interaction score: -2
4H566-AA
  interaction score: 2.14
4H678-AA; mean of both orientations
  interaction score: -0.948
4H717-AA
  interaction score: -0.483
4H881-AA
  interaction score: 1.95
4H906-AA
  interaction score: -1.33

## DEIAALEAEIAALEAKNAALKAKNAALEG [4H63-AA]
4H63-AA
  interaction score: -1.93

## DEIAALKAKNAALEAEIAALKAKIAALEG [4H909-AA]
4H930-AA
  interaction score: -1.17
4H909-AA
  interaction score: 2.08
4H94-AA
  interaction score: -0.983

## DEIAALKAKNAALKAEIAALKAENAALEG [4H971-AA]
4H971-AA
  interaction score: -0.816
